The source of these data is PMC6093707, “Single-particle cryo-EM structure of a voltage-activated potassium channel in lipid nanodiscs” (eLife, 2018).

Series [1] concerns the target Kv channel auxiliary β subunit (rat) (UniProt P62483). The series is described as follows: cryo-EM structure; Kv chimera α4β4 complex in MSP1E3D1 lipid nanodiscs (3:1:1 POPC:POPG:POPE); 0.7 mg/ml in 20 mM HEPES-KOH pH 7.5, 150 mM KCl, 2 mM TCEP; gold grids; C4 symmetry imposed.
For series [2] the target is unchanged. The series is described as follows: negative staining electron microscopy; Kv chimera in lipid nanodiscs diluted to ~0.03 mg/ml, 0.7% uranyl formate; 2D class averages.
Series [3] deals with the molecule itself. The series is described as follows: cryo-EM structure; Kv chimera α4β4 complex in MSP1E3D1 lipid nanodiscs (3:1:1 POPC:POPG:POPE); 0.7 mg/ml in 20 mM HEPES-KOH pH 7.5, 150 mM KCl, 2 mM TCEP; gold grids; C4 symmetry imposed.

In the case of “Kv channel auxiliary β subunit (from UniProt P62483 36-367) (natural protein)”, the stoichiometry N in series [1] and in series [2] was 4 throughout.

B1: Kv1.2–2.1 paddle chimera channel, α subunit (other)
chain: MTVATGDPVDEAAAHPGHPQDTYDPEADHECCERVVINISGLRFETQLKTLAQFPETLLGDPKKRMRYFDPLRNEYFFDRNRPSFDAILYYYQSGGRLRRPVNVPLDIFSEEIRFYELGEEAMEMFREDEGYIKEEERPLPENEFQRQVWLLFEYPESSGPARIIAIVSVMVILISIVSFCLETLPIFRDENEDMHGGGVTFHTYSQSTIGYQQSTSFTDPFFIVETLCIIWFSFEFLVRFFACPSKAGFFTNIMNIIDIVAIIPYYVTIFLTESNKSVLQFQNVRRVVQIFRIMRILRIFKLSRHSKGLQILGQTLKASMRELGLLIFFLFIGVILFSSAVYFAEADERDSQFPSIPDAFWWAVVSMTTVGYGDMVPTTIGGKIVGSLCAIAGVLTIALPVPVIVSNFNYFYHRETEGEEQAQYLQVTSCPKIPSSPDLKKSRSASTISKSDYMEIQEGVNNSNEDFREENLKTANCTLANTNYVNITKMLTDV
With B1, the “stoichiometry N” value in series [3] worked out at 4.
